Measured values: article PMC8042448 (The Journal of Biological Chemistry, 2021)

B1: C-terminally truncated human prion protein huPrP(23–144) (domain or fragment)
chain: KKRPKPGGWNTGGSRYPGQGSPGGNRYPPQGGGGWGQPHGGGWGQPHGGGWGQPHGGGWGQPHGGGWGQGGGTHSQWNKPSKPKTNMKHMAGAAAAGAVVGGLGGYMLGSAMSRPIIHFGSD
notes: also called N-terminal construct huPrP(23–144); huPrP(23–144)exc
B2: recombinant full-length human prion protein huPrP(23–230) (natural protein)
chain: not shown
notes: also called full-length huPrP

Legend:
Details in all cases: both partners purified
[1] = target: T1, amyloid β (1–42) oligomers (UniProt P05067 672-713); experiment: […]) in 30 mM Tris-HCl pH 7.4; […]
T1 construct: also called Aβ(1–42)_(oligo); Aβ_(oligo)

[2] = target: T1, amyloid β (1–42) oligomers; experiment: co-sedimentation
[3] = target: T1, amyloid β (1–42) oligomers; experiment: […] (40–80 μM) […] (160–300 μM) in 30 mM Tris-HCl pH 7.4; […]

| Binder | stoichiometry N [1] | stoichiometry N [2] | binding result [3] |
| --- | --- | --- | --- |
| B1 | 8.6 | 3.7 | – |
| B2 | – | – | binds |
